How the values were obtained:
Experiment in all cases: pull-down binding Z-score (relative to library population); higher = stronger binding
Conditions in all cases: RNA library: Library-2
[1] = system: TO-3-N3 (biotin conjugate)
In short: (§1)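 Cy5- or Cy3-end-labelled RNA library (1 μg) was heat-folded in phosphate/NaCl/KCl buffer and incubated 60 min at 25 °C with streptavidin beads carrying 100 pmol biotin-conjugated small molecule. After three washes, bound RNA was eluted in hot SDS and hybridised 20 h at 55.5 °C to a DNA barcode microarray. Binding was scored by subtracting a beads-only control, averaging barcoded replicate probes after dropping highest and lowest, and converting to a Z-score against library mean and standard deviation.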

[2] = system: TO-3-N3-2 (biotin conjugate)
In short: as §1

TO-N3 (biotin conjugate) = system: TO-N3 (biotin conjugate)
In short: as §1

[3] = system: TO-N3-2 (biotin conjugate)
In short: as §1

Row | Sequence | pull-down binding Z-score [1] | pull-down binding Z-score [2] | pull-down binding Z-score (TO-N3 (biotin conjugate)) | pull-down binding Z-score [3]
1 | AUUAUGUGUACCUUCCUUACCCAGAUCCAUCAAGAAUCCUAGGGGCCGGCUGUUUUGUAGAUGAUAUCGUAAAAACAGAUGGUACACUUAUGAU [DMSMaPseq_invitro_SARS-CoV-2_Multi_47_ComplexLevel_1] | -0.234 | 0.0322 | 0.0551 | 0.511
2 | AUUCUAUUCUAUUCUAUUCU [r(AUUCU)4] | 1.33 | -0.0109 | 1.03 | -0.629
3 | AUUCUGAAGUUGUUCUUAAAAAGUUGAAGAAGUCUUUGAAU [DMSMaPseq_invitro_SARS-CoV-2_Motif_213] | -0.963 | -0.324 | -1.03 | -0.353
4 | AUUGACAUUAAUGGCAAUCUUCAUCCAGAUUCUGCCACUCUUGUUAGU [DMSMaPseq_invitro_SARS-CoV-2_Motif_73] | -0.785 | -0.197 | -0.723 | -0.113
5 | AUUGGCGACCCUGCUCAAU [DMSMaPseq_invitro_SARS-CoV-2_Motif_311] | 0.191 | -0.309 | 0.0933 | -0.232
6 | AUUGGUGCAGGUAUAUGCGCUAGU | -0.974 | -0.674 | -1.16 | -0.926
7 | AUUGUUACAUAAACCUAUUGUUUGGCAUGUUAACAAU | -0.915 | -0.197 | -0.895 | -0.663
8 | AUUGUUCAACUUAGUGAAAUUAGUAUGGACAAU | 0.851 | 0.243 | 0.606 | -0.828
9 | AUUGUUGUCGCUUCCAAGAAAAGGACGAAGAUGACAAU [DMSMaPseq_invitro_SARS-CoV-2_Motif_245] | 0.287 | -0.272 | -0.00678 | -0.371
10 | AUUUGAACUCUACUAAUGUCACUAUUGCAACCUACUGUACUGGUUCUAUACCUUGUAGUGUUUGUCUUAGUGGUUUAGAU | -0.873 | -0.244 | -1.06 | -0.913
11 | AUUUUUCUAAACUGAUAAAU [DMSMaPseq_invitro_SARS-CoV-2_Motif_131] | -0.374 | -0.194 | -0.771 | -1.08
12 | CAAAUGUGCCUUUCAACUCUCAUGAAGUGUGAUCAUUGUGGUGAAACUUCAUGGCAGACGGGCGAUUUUG | -0.685 | -0.412 | -0.576 | 0.555
13 | CAACAAAAGUUG [SHAPE_invivo_SARS-CoV-2_Motif_413] | -0.893 | -0.787 | -1.44 | -1.52
14 | CAACAAUGUGUGAUAUCAGACAACUACUAUUUGUAGUUGAAGUUGUUG | -0.133 | 0.0207 | -0.104 | -0.217
15 | CAACCUAAAUAGAGGUAUG | -0.399 | -0.292 | -0.716 | -0.591
16 | CAACGGUACUAUUACCGUUG | -0.275 | -0.426 | -0.553 | -1.59
17 | CAACGUAAGUUG [DMSMaPseq_invitro_SARS-CoV-2_Motif_215] | -0.34 | -0.477 | -0.732 | -1.6
18 | CAACUCUCAUGAAGUGUGAUCAUUGUGGUGAAACUUCAUGGCAGACGGGCGAUUUUGUUAAAGCCACUUGCGAAUUUUG | -0.573 | -0.197 | -0.161 | 0.0444
19 | CAACUGAAAUCUAUCAGGCCGGUAGCACACCUUGUAAUGGUGUUGAAGGUUUUAAUUG [SHAPE_invivo_SARS-CoV-2_Motif_433] | -0.552 | -0.292 | -0.566 | 0.0571
20 | CAACUUACAAAUUAAAUGUUG | -0.448 | -0.152 | -0.698 | -1.06
21 | CAAGAGAAGUGGGUUUUGUCGUGCCUGGUUUGCCUGGCACGAUAUUACGCACAACUAAUG | -0.455 | -0.209 | -0.438 | -0.297
22 | CAAGGACCUGCCUAAAGAAAUCACUGUUGCUACAUCACGAACGCUUUCUUAUUACAAAUUGGGAGCUUCGCAGCGUGUAGCAGGUGACUCAGGUUUUG [DMSMaPseq_invitro_SARS-CoV-2_Motif_486] | -0.688 | -0.309 | -0.158 | 0.921
23 | CAAGGCUAUUGAUGGUGGUGUCACUCGUGACAUAGCAUCUACAGAUACUUG [SHAPE_invivo_SARS-CoV-2_Motif_176] | -0.614 | -0.243 | -0.424 | 0.281
24 | CAAGGGUACACACCACUG | 0.824 | -0.131 | 0.81 | 0.0749
25 | CAAUACAUAAGAAAGCUACAUGAUGAGUUAACAGGACACAUGUUAGACAUGUAUUCUGUUAUGCUUACUAAUGAUAACACUUCAAGGUAUUG | -0.424 | 0.625 | -0.411 | -0.157

Reference: the supplement of paper PMC11865577
